Tests used:
[1] = biological target: CD38 on CD38-positive tumor lines RPMI-8226 and MM1.S (UniProt P28907 1-300, limits assumed); test: cell-based or functional assay
[2] = biological target: T1, CD38-His peptide (Thermo Fisher Scientific) (UniProt P28907 43-300, limits assumed); test: flow cytometry of LV-transduced primary T cells stained with CD38-His, then anti-His PE
T1 construct: Bought staining reagent, detected with anti-His-PE; also called CD38-His reagent; CD38-His tagged peptide; not shown: His tag

Row | surface expression level, % CAR T+ (CD38-His staining) [2] [%] | Binder | tumor killing of RPMI-8226 at E:T ratio of 1:5 (so in the source) [1] [% tumor killing]
1 | > 75 | CAR construct LTG2098 (hScFv aCD38 CD8 TM 4-1BB CD3 zeta) (other, Chimeric antigen receptor on transduced human primary T cells) QVQLQQSGPGLVKPSQTLSLTCVISGDSVSSNSAAWNWIRQSPSRGLEWLGRTYYRSKWHNDYAVSVESRIIVNPDTSKNQFSLQLNSVTPEDTAVYYCARDPGYFYGLDVWGQGTMVTVSSGGGGSGGGGSGGGGSNFMLTQPHSVSESPGKTVTIPCTRSSGTIADYYVQWYQQRPDSSPIIVIYDDNQRPSGVPDRFSGSIDSSSNSASLTISGLKTEDEAAYYCQSYDSTNHWVFGGGTKLTVLGAAATTTPAPRPPTPAPTIASQPLSLRPEACRPAAGGAVHTRGLDFACDIYIWAPLAGTCGVLLLSLVITLYCKRGRKKLLYIFKQPFMRPVQTTQEEDGCSCRFPEEEEGGCELRVKFSRSADAPAYQQGQNQLYNELNLGRREEYDVLDKRRGRDPEMGGKPRRKNPQEGLYNELQKDKMAEAYSEIGMKGERRRGKGHDGLYQGLSTATKDTYDALHMQALPPR | < 40
2 | > 45 | CAR construct LTG2090 (hScFv aCD38 CD8 TM 4-1BB CD3 zeta) (other, Chimeric antigen receptor on transduced human primary T cells) EVQLVESGGGSVQPGGSLRLSCAASEFTFSSYWMHWVRQAPGKGLEWVAVISYDGAKKYYADSVKGRFTISRDNSKNTLYLQMNSLRAEDTAVYYCARDDGSGGFDYWGQGTLVTVSSGGGGSGGGGSGGGGSDIVMTHTPLSLSVTPGQPASISCKSSQSLLHSDGKTYLYWYLQKPGQPPQLLIYEVSNRFSGVPDRYSGSGSGTDFTLKISRVEAEDVGVYYCMQSIQLPLTFGGGTKLEIKAAATTTPAPRPPTPAPTIASQPLSLRPEACRPAAGGAVHTRGLDFACDIYIWAPLAGTCGVLLLSLVITLYCKRGRKKLLYIFKQPFMRPVQTTQEEDGCSCRFPEEEEGGCELRVKFSRSADAPAYQQGQNQLYNELNLGRREEYDVLDKRRGRDPEMGGKPRRKNPQEGLYNELQKDKMAEAYSEIGMKGERRRGKGHDGLYQGLSTATKDTYDALHMQALPPR | < 70
3 | > 65 | CAR construct LTG2099 (hScFv aCD38 CD8 TM 4-1BB CD3 zeta) (other, Chimeric antigen receptor on transduced human primary T cells) QVTLKESGPVLVKPTETLTLTCTFSGFSLSTSGVGVAWIRQPPGKDLEWLALIYWDDDKRYSPSLESRLTITKDTSKNQVALTMSDMDPVDTATYYCARGDYWGRLDYWGQGTLVTVSSGGGGSGGGGSGGGGSDIQLTQSPSSLSASIGDRVTITCQASEDINNYLNWYQQKPGKAPKLLIYDASNLETGVPSRFSGSGSGTDFTFTINSLQPEDIATYYCQQFDNMPLTFGGGTKLEIKAAATTTPAPRPPTPAPTIASQPLSLRPEACRPAAGGAVHTRGLDFACDIYIWAPLAGTCGVLLLSLVITLYCKRGRKKLLYIFKQPFMRPVQTTQEEDGCSCRFPEEEEGGCELRVKFSRSADAPAYQQGQNQLYNELNLGRREEYDVLDKRRGRDPEMGGKPRRKNPQEGLYNELQKDKMAEAYSEIGMKGERRRGKGHDGLYQGLSTATKDTYDALHMQALPPR | < 10
